Eleven molecules from article PMC5605238 can be followed below.

A word on the Kd: it is the constant that tells how readily two partners part at equilibrium. Higher therefore signals a looser complex.

One data set addresses T1, RecQ4 (Homo sapiens, UniProt O94761 1-1208).
T1 sequence: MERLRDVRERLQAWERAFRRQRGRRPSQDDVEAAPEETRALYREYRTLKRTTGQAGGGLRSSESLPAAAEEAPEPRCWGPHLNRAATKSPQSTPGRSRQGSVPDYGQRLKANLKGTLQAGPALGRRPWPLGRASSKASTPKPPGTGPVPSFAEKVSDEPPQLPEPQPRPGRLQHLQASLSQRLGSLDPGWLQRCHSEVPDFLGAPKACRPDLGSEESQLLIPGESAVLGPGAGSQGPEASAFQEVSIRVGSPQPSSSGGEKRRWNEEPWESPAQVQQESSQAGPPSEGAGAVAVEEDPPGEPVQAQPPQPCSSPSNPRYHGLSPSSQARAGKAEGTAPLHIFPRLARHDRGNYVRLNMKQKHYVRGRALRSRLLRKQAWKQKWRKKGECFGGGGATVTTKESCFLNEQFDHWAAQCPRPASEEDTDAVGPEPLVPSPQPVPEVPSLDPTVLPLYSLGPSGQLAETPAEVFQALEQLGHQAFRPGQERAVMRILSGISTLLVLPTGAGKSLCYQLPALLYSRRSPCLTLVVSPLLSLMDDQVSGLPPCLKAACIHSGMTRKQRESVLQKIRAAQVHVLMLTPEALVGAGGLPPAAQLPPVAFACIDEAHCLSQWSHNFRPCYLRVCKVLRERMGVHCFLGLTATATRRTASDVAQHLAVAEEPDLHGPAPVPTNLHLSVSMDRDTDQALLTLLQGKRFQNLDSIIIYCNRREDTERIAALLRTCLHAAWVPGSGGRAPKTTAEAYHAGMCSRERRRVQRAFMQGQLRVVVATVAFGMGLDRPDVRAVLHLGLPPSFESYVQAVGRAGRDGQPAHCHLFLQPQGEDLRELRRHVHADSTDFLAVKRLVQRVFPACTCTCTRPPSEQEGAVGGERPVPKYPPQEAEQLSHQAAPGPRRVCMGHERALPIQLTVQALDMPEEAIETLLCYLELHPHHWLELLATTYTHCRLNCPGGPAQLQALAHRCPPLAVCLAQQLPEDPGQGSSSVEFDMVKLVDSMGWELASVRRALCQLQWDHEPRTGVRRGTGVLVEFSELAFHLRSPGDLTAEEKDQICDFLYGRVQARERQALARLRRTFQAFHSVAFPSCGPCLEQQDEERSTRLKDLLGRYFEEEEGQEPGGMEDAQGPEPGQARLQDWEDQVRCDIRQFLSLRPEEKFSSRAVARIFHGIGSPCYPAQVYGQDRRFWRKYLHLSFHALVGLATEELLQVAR
Briefly: EMSA. (Mobility shift assays separate free from complexed probe on a gel.)

In another data set the target is T2, Hrq1 (Saccharomyces cerevisiae, UniProt Q05549 1-1077).
T2 sequence: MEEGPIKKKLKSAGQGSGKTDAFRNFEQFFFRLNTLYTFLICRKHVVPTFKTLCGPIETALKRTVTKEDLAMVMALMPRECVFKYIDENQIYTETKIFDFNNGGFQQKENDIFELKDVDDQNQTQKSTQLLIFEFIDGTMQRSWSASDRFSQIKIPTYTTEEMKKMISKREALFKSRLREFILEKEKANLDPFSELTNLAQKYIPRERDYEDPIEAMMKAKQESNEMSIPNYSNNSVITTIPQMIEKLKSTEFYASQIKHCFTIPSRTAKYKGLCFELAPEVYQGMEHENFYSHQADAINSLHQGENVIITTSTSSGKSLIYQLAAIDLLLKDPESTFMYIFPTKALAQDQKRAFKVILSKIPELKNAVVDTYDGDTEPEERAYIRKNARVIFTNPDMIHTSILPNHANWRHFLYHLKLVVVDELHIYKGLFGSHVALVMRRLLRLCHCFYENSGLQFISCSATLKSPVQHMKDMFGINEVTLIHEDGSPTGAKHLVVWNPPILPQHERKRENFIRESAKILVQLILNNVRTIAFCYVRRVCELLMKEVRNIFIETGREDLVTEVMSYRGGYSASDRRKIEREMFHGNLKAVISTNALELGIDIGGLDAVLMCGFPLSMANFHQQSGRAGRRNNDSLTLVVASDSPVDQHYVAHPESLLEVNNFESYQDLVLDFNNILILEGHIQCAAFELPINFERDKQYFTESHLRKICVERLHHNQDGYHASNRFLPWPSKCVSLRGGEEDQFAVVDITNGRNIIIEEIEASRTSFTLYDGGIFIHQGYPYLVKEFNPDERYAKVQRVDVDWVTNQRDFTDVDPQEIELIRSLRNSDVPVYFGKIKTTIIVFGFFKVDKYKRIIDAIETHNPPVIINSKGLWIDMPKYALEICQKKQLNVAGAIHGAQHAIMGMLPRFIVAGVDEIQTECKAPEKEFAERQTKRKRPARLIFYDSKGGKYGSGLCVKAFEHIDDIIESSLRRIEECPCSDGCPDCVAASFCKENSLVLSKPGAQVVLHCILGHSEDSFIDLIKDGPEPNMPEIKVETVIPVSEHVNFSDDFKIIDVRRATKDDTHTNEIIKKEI
As to the kind of experiment: EMSA.

B1: D-loop (structured_DNA)
DNA 1: GGGTGAACCTGCAGGTGGGCGGCTGCTCATCGTAGGTTAGTGGTAGAATTCGGCAGCGTC
DNA 2: GACGCTGCCGAATTCTACCATGCCTTGCTAGGACATCTTTGCCCACCTGCAGGTTCACCC
DNA 3: TAAGAGCAAGATGTTCTATAAAAGATGTCCTAGCAAGGCA
Turning to B1, the Kd with RecQ4 came to 12.6 ± 1.8 nM; in the data set with Hrq1 it was 9.9 ± 0.7 nM.

B2: Bubble (dsDNA)
DNA 1: GGTGAACCTGCAGGTGGGCGGCTGCTCATCGTAGGTTAGTTGGTAGAATTCGGCAGCGTC
DNA 2: GACGCTGCCGAATTCTAGGTTGATTGGATGCTACTCGTCGGCGCCACCTGCAGGTTCACC
For the molecule B2, the Kd with RecQ4 came to 16.8 ± 2.3 nM; with Hrq1 it was 36.1 ± 4.9 nM.

B3: G4 (structured_DNA)
DNA: AAAGGGGGAGCTGGGGTAGATGGGAATGTGAGGGCAACAGGTGAGTCAACGTGTTGCCA
Consider B3, for which the Kd with RecQ4 amounted to 12.3 ± 2.5 nM; in the data set with Hrq1 it was 17.6 ± 2.2 nM.

B4: Yeast Tel Fork (Poly(TG1-3) Fork) (dsDNA)
DNA 1: GGTGTGGTGTGGGTGTGGTGTGGGTGTGTCACTCACATAGCGTTC
DNA 2: GAACGCTATGTGAGTGACACTGGGTGTGGTGTGGGTGTGGTGTGG
Regarding B4, the Kd in the data set with RecQ4 was found to be 18.5 ± 3.1 nM; in the data set with Hrq1, 3.5 ± 0.4 nM.

B5: Poly(dT) Fork (dsDNA)
DNA 1: TTTTTTTTTTTTTTTTTTTTTTTTTGTGTCACTCACATAGCGTTC
DNA 2: GAACGCTATGTGAGTGACACTTTTTTTTTTTTTTTTTTTTTTTTT
As to B5, the results for the Kd with RecQ4 and with Hrq1 were 50.9 ± 10.4 nM and 6.5 ± 0.5 nM, respectively.

B6: Holliday junction (HJ) (structured_DNA)
DNA 1: GACGCTGCCGAATTCTGGCTTGCTAGGACATCTTTGCCCACGTTGACCC
DNA 2: TGGGTCAACGTGGGCAAAGATGTCCTAGCAATGTAATCGTCTATGACGTT
DNA 3: CAACGTCATAGACGATTACATTGCTAGGACATGCTGTCTAGAGACTATCGA
DNA 4: ATCGATAGTCTCTAGACAGCATGTCCTAGCAAGCCAGAATTCGGCAGCGT
For the molecule B6, the Kd turned out to be 90.1 ± 23.4 nM in the data set with RecQ4 and 79.2 ± 22.7 nM with Hrq1.

B7: Human Tel Fork (Poly(TTAGGG) Fork) (dsDNA)
DNA 1: TTAGGGTTAGGGTTAGGGTTAGGGTGTGTCACTCACATAGCGTTC
DNA 2: GAACGCTATGTGAGTGACACTTAGGGTTAGGGTTAGGGTTAGGGT
In the case of B7, the figures for the Kd in the data set with RecQ4 and with Hrq1 were 39.7 ± 8.3 nM and 15.7 ± 1.7 nM, respectively.

B8: 25-nt Random Fork (dsDNA)
DNA 1: ACCGTTGTGCAACTGAGTGGACAACGTGTCACTCACATAGCGTTC
DNA 2: GAACGCTATGTGAGTGACACCAACAGGTGAGTCAACGTGTTGCCA
B8: in the data set with RecQ4, the Kd came to 108 ± 32.5 nM.

B9: 5' tail (dsDNA)
DNA 1: ACCGTTGTGCAACTGAGTGGACAACGTGTCACTCACATAGCGTTC
DNA 2: GAACGCTATGTGAGTGACAC
Turning to B9, the Kd came out at 102 ± 29.4 nM with RecQ4 and 154 ± 44.6 nM with Hrq1.

B10: 3' tail (dsDNA)
DNA 1: GAACGCTATGTGAGTGACACCAACAGGTGAGTCAACGTGTTGCCA
DNA 2: GTGTCACTCACATAGCGTTC
B10: the Kd in the data set with RecQ4 came to 21.8 ± 4.2 nM; with Hrq1, 141 ± 59.4 nM.

B11: Poly(dT) 40mer ssDNA (ssDNA)
DNA: TTTTTTTTTTTTTTTTTTTTTTTTTTTTTTTTTTTTTTTT
Take B11: the Kd with RecQ4 is 2.38 ± 0.15 nM; in the data set with Hrq1 it was 3.45 ± 0.19 nM.
